Measurements taken from US20210332115A1 (Sanofi, published 2021).
Changes are numbered by the printed parent chain.

B1: VH4/Vκ6-IgG4v1 (antibody)
heavy: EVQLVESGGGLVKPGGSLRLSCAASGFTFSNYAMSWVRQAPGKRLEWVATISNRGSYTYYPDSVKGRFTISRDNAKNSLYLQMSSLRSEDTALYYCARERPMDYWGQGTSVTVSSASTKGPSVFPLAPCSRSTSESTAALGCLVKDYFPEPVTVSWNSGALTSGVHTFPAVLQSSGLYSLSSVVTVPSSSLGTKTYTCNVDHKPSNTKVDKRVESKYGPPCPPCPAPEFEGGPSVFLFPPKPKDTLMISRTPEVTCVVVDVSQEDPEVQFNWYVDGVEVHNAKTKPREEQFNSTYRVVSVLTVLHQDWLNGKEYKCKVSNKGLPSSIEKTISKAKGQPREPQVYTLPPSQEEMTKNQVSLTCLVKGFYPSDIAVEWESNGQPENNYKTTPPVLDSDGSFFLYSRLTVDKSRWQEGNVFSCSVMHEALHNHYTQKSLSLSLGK
light: DIVMTQSPSFLSASVGDRVTITCKASQDVGTAVAWYQQKPGKAPKLLIYWASTRHTGVPDRFTGSGSGTDFTLTISSLQSEDFAVYFCHQHSSNPLTFGQGTKLEIKRTVAAPSVFIFPPSDEQLKSGTASVVCLLNNFYPREAKVQWKVDNALQSGNSQESVTEQDSKDSTYSLSSTLTLSKADYEKHKVYACEVTHQGLSSPVTKSFNRGEC
notes: also called VH4/VK6; V46/VK6-IgG4v1
B2: VH4/Vκ6-IgG4v2 (antibody)
heavy: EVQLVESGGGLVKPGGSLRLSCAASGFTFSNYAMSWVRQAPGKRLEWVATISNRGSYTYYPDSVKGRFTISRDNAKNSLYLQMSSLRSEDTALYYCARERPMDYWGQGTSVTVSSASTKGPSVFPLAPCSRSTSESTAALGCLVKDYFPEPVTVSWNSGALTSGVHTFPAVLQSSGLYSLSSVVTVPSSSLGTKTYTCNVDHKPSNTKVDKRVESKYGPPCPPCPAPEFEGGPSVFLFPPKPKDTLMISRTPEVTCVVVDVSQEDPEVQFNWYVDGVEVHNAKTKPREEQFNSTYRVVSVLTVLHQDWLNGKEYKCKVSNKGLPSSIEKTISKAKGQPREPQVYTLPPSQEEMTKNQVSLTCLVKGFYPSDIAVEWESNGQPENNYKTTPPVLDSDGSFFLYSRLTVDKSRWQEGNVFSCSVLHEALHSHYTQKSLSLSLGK
light: B1 light
notes: also called VH4/VK6-IgG4v2
B3: VH6/Vκ7-IgG4v1 (antibody)
heavy: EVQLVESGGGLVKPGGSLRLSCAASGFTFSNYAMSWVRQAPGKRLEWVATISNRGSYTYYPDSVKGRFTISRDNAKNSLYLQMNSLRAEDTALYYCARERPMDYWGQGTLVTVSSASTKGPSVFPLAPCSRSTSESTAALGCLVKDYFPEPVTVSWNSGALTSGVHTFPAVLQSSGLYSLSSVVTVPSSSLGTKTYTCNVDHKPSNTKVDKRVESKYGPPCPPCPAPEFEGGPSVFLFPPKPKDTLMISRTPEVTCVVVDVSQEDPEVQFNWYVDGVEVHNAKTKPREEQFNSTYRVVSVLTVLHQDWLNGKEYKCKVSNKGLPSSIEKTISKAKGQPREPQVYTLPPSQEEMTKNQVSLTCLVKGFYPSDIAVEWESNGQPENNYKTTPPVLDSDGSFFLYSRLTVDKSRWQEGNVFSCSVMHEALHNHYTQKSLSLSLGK
light: B1 light with V3Q, F10T, T63S, S80A
notes: also called VH6/VK7; VH6/VK7-IgG4v1
B4: VH4/Vκ7 (antibody, V domains shown)
VH: EVQLVESGGGLVKPGGSLRLSCAASGFTFSNYAMSWVRQAPGKRLEWVATISNRGSYTYYPDSVKGRFTISRDNAKNSLYLQMSSLRSEDTALYYCARERPMDYWGQGTSVTVSS
VL: DIQMTQSPSTLSASVGDRVTITCKASQDVGTAVAWYQQKPGKAPKLLIYWASTRHTGVPDRFSGSGSGTDFTLTISSLQAEDFAVYFCHQHSSNPLTFGQGTKLEIK
notes: Redesigned variant; cloned into the appropriate expression vector (IgG4v1 and kappa were used in the first round)
B5: VH6/Vκ6 (antibody, V domains shown)
VH: B4 VH with S84N, S88A, S110L
VL: B4 VL with Q3V, T10F, S63T, A80S
notes: as for B4
B6: VH7/Vκ7 (antibody, V domains shown)
VH: B4 VH with A40T, G42E, S84N, S88A, S110L
VL: B4 VL
notes: Redesigned variant; cloned into the appropriate expression vector (IgG4v1 and kappa were used in the first round); also called VH7/VκK7
B7: VH6/Vk7-IgG4v2-CHO (antibody)
heavy chain: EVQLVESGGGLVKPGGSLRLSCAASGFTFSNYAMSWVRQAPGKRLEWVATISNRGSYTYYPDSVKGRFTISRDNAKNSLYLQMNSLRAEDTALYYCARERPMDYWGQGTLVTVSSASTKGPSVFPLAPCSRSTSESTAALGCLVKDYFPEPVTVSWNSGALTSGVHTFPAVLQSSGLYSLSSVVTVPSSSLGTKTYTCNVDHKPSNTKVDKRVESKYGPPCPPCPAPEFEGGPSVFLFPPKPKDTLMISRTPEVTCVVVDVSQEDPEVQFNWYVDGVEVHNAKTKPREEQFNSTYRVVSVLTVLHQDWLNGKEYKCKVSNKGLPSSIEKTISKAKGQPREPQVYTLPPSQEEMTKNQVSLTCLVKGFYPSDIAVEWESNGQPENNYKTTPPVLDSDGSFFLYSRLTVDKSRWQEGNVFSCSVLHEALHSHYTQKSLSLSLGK
light chain: B1 light with V3Q, F10T, T63S, S80A
B8: Anti-factor Bb mouse monoclonal antibody (antibody, V domains shown)
VH: B4 VH with G10A, R19K, A40T, G42E, S78T
VL: DIVMTQSHKFMSTSVGDRVSITCKASQDVGTAVAWYQQKPGQSPKLLIYWASTRHTGVPDRFTGSGSGTDFTLTITNVQSEDLAVYFCHQHSSNPLTFGAGTKLELK
notes: Mouse monoclonal antibody from a hybridoma; also called murine parental antibody; parent anti-factor Bb antibody

Experiments:
[1] = molecular target: T1, Homo sapiens factor Bb protein (human, UniProt P00751 260-764); assay: SPR single cycle kinetics; ratio against VH0/Vκ0
T1 construct: Bought from CompTech (A155); also called complement factor Bb; human factor Bb
Protocol: All single cycle kinetic experiments were run at 25° C. with HBS-P+running buffer (pH 7. 4) (GE Healthcare, Little Chalfont, UK).
(§1) Antibodies were diluted in running buffer to a final concentration of 1 μg/ml, based on concentrations assessed by ELISA titer. At the start of each cycle, antibodies were loaded onto Fc2, Fc3 and Fc4 of the Protein A chip (GE Healthcare, Little Chalfont, UK). IgGs were captured at a flow rate of 10 μl/min to give an immobilization level (RL) of ˜63 RU, the theoretical value to obtain an Rmax of ˜50 RU. The surface was then allowed to stabilize. Single cycle kinetic data was obtained with factor Bb (CompTech, Tyler, USA) as the analyte at a flow rate of 30 μl/min to minimize any potential mass transport limitations. Multiple repeats with the reference chimeric antibody were performed to check the stability of the surface and analyte over the kinetic cycles. The signal from the reference channel Fc1 (no antibody) was subtracted from that of Fc2, Fc3 and Fc4 to correct for differences in non-specific binding to a reference surface. A four point, two-fold dilution range from 0. 78 nM to 6. 25 nM factor Bb without regeneration between each concentration was used. The association phase for the four injections of increasing concentrations of factor Bb was monitored for 200 seconds each time and a single dissociation phase was measured for 200 seconds following the last injection of factor Bb. Regeneration of the Protein A surface was conducted using two injections of 10 mM glycine-HCL pH 1. 5.
Single cycle kinetics using cell culture supernatants were performed as described above. […] The relative KD was calculated by dividing the KD of the VH0/Vκ0 reference antibody by that of the humanized variant assayed in the same experiment.

[2] = molecular target: T1, Homo sapiens factor Bb protein; assay: BLI Octet, biotinylated antibody on SA biosensors
Protocol: (§2) Briefly, biotinylated antibodies were loaded onto SA Biosensors equilibrated in PBS, 0.1% BSA, 0.02% Tween-20 (assay buffer). After a 60 second baseline in assay buffer, antibodies were loaded onto the probes for 180 seconds, followed by another 60 second baseline. Association to human (Comptech) or cynomolgus monkey factor Bb (purified in-house) was measured for 300 seconds, followed by a 300 second dissociation. Kinetic parameters were calculated by the Octet Analysis software using a 1:1 binding model.
To determine whether the modification of the Fc portion of the antibodies affected affinity and species cross-reactivity, VH4/VK6-IgG4v2 and VH6/VK7-IgG4v2 were tested alongside their parental antibodies, VH4/VK6 and VH6/VK7, respectively, for their ability to bind human and cynomolgus monkey factor Bb by BLI. VH4/VK6-IgG4v2 and VH6/VK7-IgG4v2 contain mutations in the Fc region that increase the affinity for an Fc receptor.

[3] = molecular target: T1, Homo sapiens factor Bb protein; assay: BLI Octet, biotinylated antibody on SA biosensors; remark: listed apart in the source
Protocol: as §2

[4] = molecular target: T1, Homo sapiens factor Bb protein; assay: competition ELISA on coated factor Bb; competitor murine parental antibody
Protocol: Factor Bb was diluted in 1× PBS to 1.0 μg/ml and 100 μl/well was coated overnight at 4° C. on a 96-well ELISA plate. The following day the plates were blocked for two hours at room temperature with 1% casein/PBS before washing 2× with PBS pH 7.4. In a 96-well dilution plate a fixed concentration of murine parental antibody (0.5 μg/ml, final concentration) was added in equal volume to a four-fold titration series of test antibody (starting from 45 μg/ml to 0.01 μg/ml, final concentration) diluted in blocking buffer. After washing the plate 3× with PBS-T, 100 μl of chimeric/test antibody mix was added to the ELISA plate. After incubating at room temperature for one hour, the plate was washed 3× with PBS-T and 100 μl of anti-mouse IgG Fc-Specific HRP (Sigma, Dorset, UK) diluted 1:1000 in PBS-T was applied for one hour at room temperature to detect bound mouse antibody. For color development, the plate was washed 3× with PBS-T following which 100 μl of TMB substrate was added and incubated for approximately five minutes at room temperature. The reaction was stopped with 50 μl of 3.0 M hydrochloric acid and absorbance was read immediately using a DYNEX ® plate reader at 450 nm.
IC50 values were calculated for each variant and relative IC50 values were calculated by dividing the IC50 of the humanized variant by that of the chimeric antibody assayed on the same plate (Table 11).

[5] = molecular target: T1, Homo sapiens factor Bb protein; assay: cell-based or functional assay
[6] = molecular target: T1, Homo sapiens factor Bb protein; assay: SPR multi-cycle kinetics, IgG on Protein A chip, factor Bb analyte
Protocol: (§3) Antibodies were diluted in running buffer to a final concentration of 0.5 μg/ml. At the start of each cycle, antibodies were loaded onto Fc2, Fc3 and Fc4 of the Protein A chip (GE Healthcare, Little Chalfont, UK). IgGs were captured at a flow rate of 10 μl/min to give an immobilisation level (RL) of ˜63 RU, the theoretical value to obtain an Rmax of ˜50 RU. The surface was then allowed to stabilize. Kinetic data was obtained with factor Bb as analyte and using a flow rate of 30 μl/min to minimize any potential mass transfer effects. Multiple repeats of a blank and a repeat of a single concentration of the analyte were programmed into the kinetic run in order to check the stability of both the surface and analyte over the kinetic cycles. For kinetic analysis, a two-fold dilution range was selected from 12. 5 nM to 0. 391 nM factor Bb. The association phase of factor Bb was monitored for 360 seconds and the dissociation phase was monitored for 600 seconds. Regeneration of the Protein A surface was conducted using two injections of 10 mM glycine-HCL pH 1. 5. The signal from the reference channel Fc1 was subtracted from that of Fc2, Fc3 and Fc4 to correct for differences in non-specific binding to a reference surface, and a global Rmax parameter was used in the 1-to-1 binding model.
(§4) The sensorgrams and fitted data for the binding of chimeric antibodies and humanized variants to factor Bb are shown in FIGS. 4A-4C. The relative KD was calculated by dividing the KD of the humanized variants by that of the chimeric antibody on the same chip. The kinetic parameters measured for the interaction of factor Bb with chimeric antibodies and humanized variants are shown in Table 10.

[7] = molecular target: T1, Homo sapiens factor Bb protein; assay: SPR single cycle kinetics, IgG on Protein A chip, factor Bb analyte
Protocol: In order to assess the binding of all humanized variants, single cycle kinetic analysis was performed on supernatants from transfected cell cultures. […] All single cycle kinetic experiments were run at 25° C. with HBS-P+running buffer (pH 7. 4) (GE Healthcare, Little Chalfont, UK).
as §1
Single cycle kinetics using cell culture supernatants were performed as described above.

[8] = molecular target: T1, Homo sapiens factor Bb protein; assay: SPR multi-cycle kinetics; ratio against VH0/Vκ0 on the same chip
Protocol: as §3, §4

[9] = molecular target: T1, Homo sapiens factor Bb protein; assay: SPR single cycle kinetics, antibody on Protein A chip, antigen analyte
Protocol: (§5) The ability of VH4/VK6 and VH6/VK7 to bind to zymogen factor B and factor Bb from both human and cynomolgus monkey was determined by surface plasmon resonance using a Biacore T200. Human factor B and factor Bb were purchased from Comptech and cynomolgus monkey factor B and factor Bb were purified in-house. Briefly, the monoclonal antibodies were captured on a Biacore Series S Protein A chip in HBSP+ (10 mM HEPES, 150 mM NaCl, 0.05% P20 pH 7.4) at a flow rate of 30 μL/min. A five-point concentration series of each analyte was tested for binding using single cycle kinetics with a contact time of 180 seconds per concentration followed by a 600 sec dissociation at 25° C. and a flow rate of […]. Both human and cynomolgus monkey factor B started at a concentration of 500 nM followed by 2-fold dilutions, while human and cynomolgus monkey factor Bb started at concentrations of 30 nM and 150 nM, respectively, followed by 2-fold dilutions. Data were analyzed using the Biacore evaluation software using a 1:1 binding model. […] Binding to human or cynomolgus monkey factor B was barely detectable and the small signal that was observed was dominated by non-specific binding.

[10] = molecular target: T1, Homo sapiens factor Bb protein; assay: SPR single cycle kinetics; against cynomolgus monkey factor Bb
Protocol: as §5

[11] = molecular target: T1, Homo sapiens factor Bb protein; assay: BLI, multi-cycle kinetics, antibody loaded on anti-hIgG Fc sensors, human factor Bb in solution (100 nM to 0.14 nM), 1:1 fit
Protocol: Multicycle kinetic analysis was performed on CHO and HEK-produced VH6/VK7-IgG4v2 antibodies using biolayer interferometry. Antibodies were diluted to 10 μg/mL in PBS+ 0.02%. Tween20, 0.1% BSA, 0.05% sodium azide and loaded onto anti-hIgG Fc sensors (pre-equilibrated in the same buffer) for 90 seconds followed by a 60-minute baseline in buffer. Binding of a concentration series of human factor Bb (Complement Technologies, #A155), ranging from 100 nM to 0.14 nM in 2-fold dilutions, was measured in a 300 second association in the same buffer, followed by a 300 second dissociation step.

T1 sequence (P00751 260-764 limits assumed): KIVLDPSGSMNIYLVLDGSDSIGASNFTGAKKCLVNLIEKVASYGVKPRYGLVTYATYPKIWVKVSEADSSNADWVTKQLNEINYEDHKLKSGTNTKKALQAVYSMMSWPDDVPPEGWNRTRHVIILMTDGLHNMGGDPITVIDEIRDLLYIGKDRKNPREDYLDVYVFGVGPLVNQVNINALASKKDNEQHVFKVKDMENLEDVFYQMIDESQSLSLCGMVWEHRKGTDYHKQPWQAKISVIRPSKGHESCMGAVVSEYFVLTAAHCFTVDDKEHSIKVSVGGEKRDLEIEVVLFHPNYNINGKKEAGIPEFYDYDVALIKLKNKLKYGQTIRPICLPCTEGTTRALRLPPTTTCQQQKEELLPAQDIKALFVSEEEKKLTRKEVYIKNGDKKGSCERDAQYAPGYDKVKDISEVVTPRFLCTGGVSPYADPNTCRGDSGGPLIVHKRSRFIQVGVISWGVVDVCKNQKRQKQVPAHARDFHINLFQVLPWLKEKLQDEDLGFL

| Relative KD [1] | Kd [2] | Kd [3] | IC50 [4] | AP Assay IC50 [5] | Kd [6] | koff [6] | kon [6] | Kd [7] | koff [7] | kon [7] | Relative KD [8] | Kd [9] | koff [9] | kon [9] | fold higher affinity for human factor Bb compared to cynomolgus monkey factor Bb [10] | Kd [11] | Binder |
| --- | --- | --- | --- | --- | --- | --- | --- | --- | --- | --- | --- | --- | --- | --- | --- | --- | --- |
| 1.25 | 1.6 nM | 1.6 nM | 1.02 nM | 22 nM | 2.14 nM | 0.000805 s⁻¹ | 376000 M⁻¹ s⁻¹ | 2.22 nM | 0.000859 s⁻¹ | 387000 M⁻¹ s⁻¹ | 1.08 |  |  |  |  |  | B1 |
|  | 1.6 nM |  |  |  |  |  |  |  |  |  |  | 2.26 nM | 0.000925 s⁻¹ | 410000 M⁻¹ s⁻¹ | ~10 fold |  | B2 |
| 1.98 | 1.7 nM | 1.9 nM | 0.82 nM | 21 nM | 5.7 nM | 0.00124 s⁻¹ | 218000 M⁻¹ s⁻¹ | 3.51 nM | 0.00221 s⁻¹ | 630000 M⁻¹ s⁻¹ | 2.98 |  |  |  |  |  | B3 |
| 1.32 |  | 1.9 nM | 0.75 nM | 23 nM | 2.61 nM | 0.000841 s⁻¹ | 322000 M⁻¹ s⁻¹ | 2.34 nM | 0.000903 s⁻¹ | 386000 M⁻¹ s⁻¹ | 1.31 |  |  |  |  |  | B4 |
| 2.17 |  | 1.9 nM | 0.93 nM | 19 nM | 5.17 nM | 0.0013 s⁻¹ | 251000 M⁻¹ s⁻¹ | 3.84 nM | 0.00158 s⁻¹ | 412000 M⁻¹ s⁻¹ | 2.71 |  |  |  |  |  | B5 |
| 1.37 |  | 2.9 nM | 1.43 nM | 25 nM | 9.51 nM | 0.00211 s⁻¹ | 222000 M⁻¹ s⁻¹ | 2.42 nM | 0.0117 s⁻¹ | 4.83e+06 M⁻¹ s⁻¹ | 5.01 |  |  |  |  |  | B6 |
|  |  |  |  |  |  |  |  |  |  |  |  |  |  |  |  | 2.7 nM | B7 |
|  |  | 1.9 nM |  |  |  |  |  |  |  |  |  |  |  |  |  |  | B8 |
